From publication PMC10397247

Experiments:
4H3974-bH = biological target: T1, 4H3974-bH; test: two-hybrid library CCNG1;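 note: natural log of median RNA to DNA barcode read ratio; higher means stronger binding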
T1 chain: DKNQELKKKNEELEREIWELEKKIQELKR

4H626-bH = biological target: T2, 4H626-bH; test: two-hybrid library CCNG1;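 note: natural log of median RNA to DNA barcode read ratio; higher means stronger binding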
T2 chain: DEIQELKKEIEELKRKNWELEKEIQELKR

4H570-bH = biological target: T3, 4H570-bH; test: two-hybrid library CCNG1;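 note: natural log of median RNA to DNA barcode read ratio; higher means stronger binding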
T3 chain: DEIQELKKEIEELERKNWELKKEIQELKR

4H3926-bH = biological target: T4, 4H3926-bH; test: two-hybrid library CCNG1;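 note: natural log of median RNA to DNA barcode read ratio; higher means stronger binding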
T4 chain: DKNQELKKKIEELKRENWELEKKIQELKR

4H906-bH = biological target: T5, 4H906-bH; test: two-hybrid library CCNG1;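 note: natural log of median RNA to DNA barcode read ratio; higher means stronger binding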
T5 chain: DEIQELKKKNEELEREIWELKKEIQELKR

4H3628-bH = biological target: T6, 4H3628-bH; test: two-hybrid library CCNG1;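 note: natural log of median RNA to DNA barcode read ratio; higher means stronger binding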
T6 chain: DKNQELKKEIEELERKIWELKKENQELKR

4H591-bH = biological target: T7, 4H591-bH; test: two-hybrid library CCNG1
T7 chain: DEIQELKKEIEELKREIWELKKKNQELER

4H3858-bH = biological target: T8, 4H3858-bH; test: two-hybrid library CCNG1
T8 chain: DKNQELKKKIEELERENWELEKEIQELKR

4H3817-bH = biological target: T9, 4H3817-bH; test: two-hybrid library CCNG1
T9 chain: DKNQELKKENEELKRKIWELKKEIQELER

4H850-bH = biological target: T10, 4H850-bH; test: two-hybrid library CCNG1
T10 chain: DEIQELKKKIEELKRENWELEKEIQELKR

4H94-AA = biological target: T11, 4H94-AA; test: two-hybrid library CCmax; details: mean of both orientations
T11 chain: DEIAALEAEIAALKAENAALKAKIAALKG

4H930-AA = biological target: T12, 4H930-AA; test: two-hybrid library CCmax; details: mean of both orientations
T12 chain: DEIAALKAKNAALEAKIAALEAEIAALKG

4H485-AA = biological target: T13, 4H485-AA; test: two-hybrid library CCmax; details: mean of both orientations
T13 chain: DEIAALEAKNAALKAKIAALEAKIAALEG

4H2473-AA = biological target: T14, 4H2473-AA; test: two-hybrid library CCmax; details: mean of both orientations
T14 chain: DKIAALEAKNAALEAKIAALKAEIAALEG

4H891-AA = biological target: T15, 4H891-AA; test: two-hybrid library CCmax; details: mean of both orientations
T15 chain: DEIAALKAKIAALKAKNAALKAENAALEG

4H3410-AA = biological target: T16, 4H3410-AA; test: two-hybrid library CCmax; details: mean of both orientations
T16 chain: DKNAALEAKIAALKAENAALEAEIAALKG

4H2725-AA = biological target: T17, 4H2725-AA; test: two-hybrid library CCmax; details: mean of both orientations
T17 chain: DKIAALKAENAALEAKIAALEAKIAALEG

4H2865-AA = biological target: T18, 4H2865-AA; test: two-hybrid library CCmax; details: mean of both orientations
T18 chain: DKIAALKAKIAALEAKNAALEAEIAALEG

4H2330-AA = biological target: T19, 4H2330-AA; test: two-hybrid library CCmax; details: mean of both orientations
T19 chain: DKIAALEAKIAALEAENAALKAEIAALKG

4H2109-AA = biological target: T20, 4H2109-AA; test: two-hybrid library CCmax
T20 chain: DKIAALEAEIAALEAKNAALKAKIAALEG

4H3381-AA = biological target: T21, 4H3381-AA; test: two-hybrid library CCmax; details: mean of both orientations
T21 chain: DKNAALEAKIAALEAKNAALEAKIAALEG

4H3009-AA = biological target: T22, 4H3009-AA; test: two-hybrid library CCmax; details: mean of both orientations
T22 chain: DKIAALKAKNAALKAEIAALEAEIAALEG

4H629-AA = biological target: T23, 4H629-AA; test: two-hybrid library CCmax; details: mean of both orientations
T23 chain: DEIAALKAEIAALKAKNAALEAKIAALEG

4H909-AA = biological target: T24, 4H909-AA; test: two-hybrid library CCmax; details: mean of both orientations
T24 chain: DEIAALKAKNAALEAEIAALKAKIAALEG

4H2389-AA = biological target: T25, 4H2389-AA; test: two-hybrid library CCmax; details: mean of both orientations
T25 chain: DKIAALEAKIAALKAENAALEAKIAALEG

4H458-AA = biological target: T26, 4H458-AA; test: two-hybrid library CCmax; details: mean of both orientations
T26 chain: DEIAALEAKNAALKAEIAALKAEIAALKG

4H570-AA = biological target: T27, 4H570-AA; test: two-hybrid library CCmax; details: mean of both orientations
T27 chain: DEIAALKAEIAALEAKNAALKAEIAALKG

4H745-AA = biological target: T28, 4H745-AA; test: two-hybrid library CCmax; details: mean of both orientations
T28 chain: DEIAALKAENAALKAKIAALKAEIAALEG

4H536-AA = biological target: T29, 4H536-AA; test: two-hybrid library CCmax; details: mean of both orientations
T29 chain: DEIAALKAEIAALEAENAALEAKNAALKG

4H3697-AA = biological target: T30, 4H3697-AA; test: two-hybrid library CCmax; details: mean of both orientations
T30 chain: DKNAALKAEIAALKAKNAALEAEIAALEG

4H850-AA = biological target: T31, 4H850-AA; test: two-hybrid library CCmax; details: mean of both orientations
T31 chain: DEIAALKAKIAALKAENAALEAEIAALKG

4H2253-AA = biological target: T32, 4H2253-AA; test: two-hybrid library CCmax; details: mean of both orientations
T32 chain: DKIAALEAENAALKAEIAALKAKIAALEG

4H797-AA = biological target: T33, 4H797-AA; test: two-hybrid library CCmax; details: mean of both orientations
T33 chain: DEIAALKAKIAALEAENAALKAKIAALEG

4H2698-AA = biological target: T34, 4H2698-AA; test: two-hybrid library CCmax; details: mean of both orientations
T34 chain: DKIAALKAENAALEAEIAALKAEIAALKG

4H3120-AA = biological target: T35, 4H3120-AA; test: two-hybrid library CCmax; details: mean of both orientations
T35 chain: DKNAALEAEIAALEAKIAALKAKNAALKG

4H3590-AA = biological target: T36, 4H3590-AA; test: two-hybrid library CCmax; details: mean of both orientations
T36 chain: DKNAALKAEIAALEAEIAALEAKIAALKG

4H3395-AA = biological target: T37, 4H3395-AA; test: two-hybrid library CCmax; details: mean of both orientations
T37 chain: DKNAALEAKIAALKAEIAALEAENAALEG

4H710-AA = biological target: T38, 4H710-AA; test: two-hybrid library CCmax; details: mean of both orientations
T38 chain: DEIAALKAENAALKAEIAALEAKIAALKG

4H3016-AA = biological target: T39, 4H3016-AA; test: two-hybrid library CCmax; details: mean of both orientations
T39 chain: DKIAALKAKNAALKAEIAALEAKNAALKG

4H2162-AA = biological target: T40, 4H2162-AA; test: two-hybrid library CCmax; details: mean of both orientations
T40 chain: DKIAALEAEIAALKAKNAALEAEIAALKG

4H310-AA = biological target: T41, 4H310-AA; test: two-hybrid library CCmax; details: mean of both orientations
T41 chain: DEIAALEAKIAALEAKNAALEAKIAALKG

4H2274-AA = biological target: T42, 4H2274-AA; test: two-hybrid library CCmax; details: mean of both orientations
T42 chain: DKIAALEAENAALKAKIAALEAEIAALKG

4H3753-AA = biological target: T43, 4H3753-AA; test: two-hybrid library CCmax; details: mean of both orientations
T43 chain: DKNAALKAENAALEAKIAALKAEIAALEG

4H3130-AA = biological target: T44, 4H3130-AA; test: two-hybrid library CCmax; details: mean of both orientations
T44 chain: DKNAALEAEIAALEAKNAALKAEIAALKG

4H3165-AA = biological target: T45, 4H3165-AA; test: two-hybrid library CCmax; details: mean of both orientations
T45 chain: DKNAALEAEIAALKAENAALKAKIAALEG

4H2649-AA = biological target: T46, 4H2649-AA; test: two-hybrid library CCmax; details: mean of both orientations
T46 chain: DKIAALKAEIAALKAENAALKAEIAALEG

4H3865-AA = biological target: T47, 4H3865-AA; test: two-hybrid library CCmax
T47 chain: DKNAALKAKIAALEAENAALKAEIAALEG

4H2438-AA = biological target: T48, 4H2438-AA; test: two-hybrid library CCmax; details: mean of both orientations
T48 chain: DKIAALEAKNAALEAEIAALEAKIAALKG

4H3613-bH = biological target: T49, 4H3613-bH; test: two-hybrid library CCNG1
T49 chain: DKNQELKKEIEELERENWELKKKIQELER

4H3497-bH = biological target: T50, 4H3497-bH; test: two-hybrid library CCNG1
T50 chain: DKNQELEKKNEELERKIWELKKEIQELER

How did the interaction score (4H3974-bH) turn out when DKNQELKKEIEELERKIWELKKENQELKR [4H3628-bH] was run?
Its interaction score is 1.22.

And the interaction score (4H626-bH)?
The interaction score was -0.0728.

And the interaction score (4H570-bH)?
Its interaction score is -1.36.

And the interaction score (4H3926-bH)?
Its interaction score is 0.588.

And the interaction score (4H906-bH)?
The interaction score was -0.107.

What about the interaction score (4H3628-bH) of the same binder?
The interaction score was 0.896.

And the interaction score (4H591-bH)?
The interaction score was 0.0937.

What about the interaction score (4H3858-bH) of the same binder?
Its interaction score is 0.42.

And the interaction score (4H3817-bH)?
The interaction score was 0.965.

And the interaction score (4H850-bH)?
The interaction score was 0.701.

With DKIAALEAEIAALEAKNAALKAKIAALEG [4H2109-AA] as the binder, how does the interaction score (4H94-AA) read?
Its interaction score is 1.43.

And the interaction score (4H930-AA)?
The interaction score was -0.719.

What about the interaction score (4H485-AA) of the same binder?
Its interaction score is -0.723.

And the interaction score (4H2473-AA)?
The interaction score was -0.356.

And the interaction score (4H891-AA)?
Its interaction score is -1.3.

What about the interaction score (4H3410-AA) of the same binder?
The interaction score was 1.87.

What about the interaction score (4H2725-AA) of the same binder?
The interaction score was 0.465.

And the interaction score (4H2865-AA)?
The interaction score was 2.17.

And the interaction score (4H2330-AA)?
The interaction score was 0.0427.

And the interaction score (4H2109-AA)?
Its interaction score is 1.67.

What about the interaction score (4H3381-AA) of the same binder?
Its interaction score is -0.283.

What about the interaction score (4H3009-AA) of the same binder?
The interaction score was -0.233.

And the interaction score (4H629-AA)?
Its interaction score is 1.09.

And the interaction score (4H909-AA)?
Its interaction score is -0.525.

And the interaction score (4H2389-AA)?
The interaction score was 2.49.

What about the interaction score (4H458-AA) of the same binder?
The interaction score was -1.45.

What about the interaction score (4H570-AA) of the same binder?
Its interaction score is -0.239.

And the interaction score (4H745-AA)?
Its interaction score is -0.947.

And the interaction score (4H536-AA)?
Its interaction score is 0.839.

What about the interaction score (4H3697-AA) of the same binder?
The interaction score was -0.415.

What about the interaction score (4H850-AA) of the same binder?
The interaction score was 2.07.

And the interaction score (4H2253-AA)?
Its interaction score is -1.76.

What about the interaction score (4H797-AA) of the same binder?
Its interaction score is 1.44.

What about the interaction score (4H2698-AA) of the same binder?
The interaction score was 1.53.

What about the interaction score (4H3120-AA) of the same binder?
The interaction score was -0.474.

What about the interaction score (4H3590-AA) of the same binder?
Its interaction score is 1.21.

What about the interaction score (4H3395-AA) of the same binder?
Its interaction score is -0.63.

What about the interaction score (4H710-AA) of the same binder?
The interaction score was -1.26.

And the interaction score (4H3016-AA)?
Its interaction score is -1.16.

And the interaction score (4H2162-AA)?
The interaction score was 0.55.

And the interaction score (4H310-AA)?
Its interaction score is 1.94.

What about the interaction score (4H2274-AA) of the same binder?
Its interaction score is -1.47.

What about the interaction score (4H3753-AA) of the same binder?
Its interaction score is 0.644.

What about the interaction score (4H3130-AA) of the same binder?
The interaction score was -1.05.

What about the interaction score (4H3165-AA) of the same binder?
The interaction score was -0.391.

What about the interaction score (4H2649-AA) of the same binder?
Its interaction score is 1.26.

What about the interaction score (4H3865-AA) of the same binder?
The interaction score was -0.488.

And the interaction score (4H2438-AA)?
Its interaction score is -0.365.

How did the interaction score (4H626-bH) turn out when DKNQELEKKNEELERKIWELKKEIQELER [4H3497-bH] was run?
The interaction score was -0.895.

And the interaction score (4H3926-bH)?
Its interaction score is -0.573.

What about the interaction score (4H906-bH) of the same binder?
The interaction score was -0.345.

What about the interaction score (4H3628-bH) of the same binder?
Its interaction score is 0.758.

What about the interaction score (4H3613-bH) of the same binder?
Its interaction score is -0.463.

What about the interaction score (4H591-bH) of the same binder?
Its interaction score is -1.46.

What about the interaction score (4H3497-bH) of the same binder?
The interaction score was -1.02.
